Source: patent publication US20240092888A1 (AULOS BIOSCIENCE, published 2024)

Tests used:
human IL-2 [1] = target: T1, human IL-2 (human, UniProt P60568 21-153); test: yeast surface display flow cytometry, 0.1 nM hIL-2, MFI normalized to expression
T1 construct: SPR used Reprokine human IL-2; the result sentences say only hIL-2 or labeled human IL-2, so the same molecule is used here; also called hIL-2; recombinant human IL-2

human IL-2 [2] = target: T1, human IL-2; test: yeast surface display, selection against human IL-2
[3] = target: T2, BDG17.054 complexed with hIL-2 (human, UniProt P60568 21-153); test: SPR, captured BDG17.054 loaded with 50 nM hIL-2, CD25 injected before CD122 and again after CD122
T2 construct: Humanized IgG1 captured on the SPR chip and saturated with 50 nM hIL-2; also called BDG17.054/hIL-2
Description: (§1) FIGS. 17A-17B. Present receptor discrimination of indicated antibody/IL-2 complex by tracing of SPR response. Antibody was immobilized to the CM5 chip, and hIL-2, CD122, and CD25 were streamed as indicated with an arrow. FIG. 17A presents a schematic order of injection of compounds to SPR chip, that represents sequential anti-IL-2 antibodies complexed with human IL-2 (hIL2), binding to CD122 but not to CD25.
(§2) To test specific binding of the humanized antibodies IL-2 complex to CD122 and CD25, antibodies BDG17.038, BDG17.043, BDG17.053, BDG17.054, BDG17.067, BDG17.069 (See, Tables 6 and 7 of Example 2 for sequence information for these clones) were immobilized to an a capture antibody attached to CM5 chip channel to a target RU of approximately 300 RU as described above. Subsequently, 50 nM IL-2 was injected till the respective antibody was saturated with hIL-2. Then the Ab-IL-2 complex was washed with PBS-T buffer for 60 sec and 1000 nM of CD25 was injected and monitored for response. Subsequently, running buffer was injected for 60 seconds to reach a steady baseline, and then 1000 nM of CD122 was injected for 30 seconds in a flow rate of 30 ul/min. To test CD122 binding, the same experiment was repeated in reverse order, with CD122 injected first flowed by injection of CD25.

[4] = target: T3, BDG17.053 complexed with hIL-2 (human, UniProt P60568 21-153); test: SPR, captured antibody saturated with 50 nM hIL-2, then CD25 and CD122 injected in both orders
T3 construct: Humanized IgG1 captured on the SPR chip and saturated with 50 nM hIL-2
Method: as §2

BDG17.023-hIL-2 complex = target: T4, BDG17.023-hIL-2 complex (human, UniProt P60568 21-153); test: SPR, BDG17.023 on the CM5 chip loaded with 50 nM hIL-2, CD122 then CD25 1000 nM
T4 construct: BDG17.023 (human IgG1 chimera) on the SPR chip saturated with 50 nM hIL-2; also called BDG17.023-IL-2 complex; Ab-IL-2 complex
Method: To test specific binding to CD25, BDG17.023 was immobilized to the CM5 chip to a target RU of approximately 300 RU as described above. Subsequently, 50 nM IL-2 was injected till the BDG17.023 or control antibody were saturated. Then the Ab-IL-2 complex was washed with PBS-T buffer for 10 sec and 1000 nM of CD25 was injected and monitored for response.
To test specific binding to CD122, BDG17.023 was immobilized to the CM5 chip to a target RU of approximately 300 RU-500 RU as described above. Subsequently, 50 nM hIL-2 was injected till the BDG17.023 antibody was saturated with hIL-2. Next the Ab-IL-2 complex was washed with PBS-T buffer for 10 sec and 1000 nM of CD122 was injected and response was monitored.

[5] = target: T5, BDG17.038 complexed with hIL-2 (human, UniProt P60568 21-153); test: SPR, captured BDG17.038 loaded with 50 nM hIL-2, CD25 injected before CD122
T5 construct: Humanized IgG1 captured on the SPR chip and saturated with 50 nM hIL-2; also called BDG17.038/hIL-2
Description: as §1

[6] = target: T6, BDG17.066 complexed with hIL-2 (human, UniProt P60568 21-153); test: SPR, captured BDG17.066 loaded with hIL-2, CD25 injected before CD122 and again after CD122
T6 construct: Humanized IgG1 LALA on the SPR chip saturated with hIL-2
Description: as §1

[7] = target: T7, BDG17.067 complexed with hIL-2 (human, UniProt P60568 21-153); test: SPR, captured BDG17.067 loaded with hIL-2, CD25 injected before CD122 and again after CD122
T7 construct: Humanized IgG1 LALA captured on the SPR chip and saturated with 50 nM hIL-2; also called BDG17.0067 complexed with hIL-2
Description: as §1, §2

[8] = target: T8, BDG17.069 complexed with hIL-2 (human, UniProt P60568 21-153); test: SPR, captured BDG17.069 loaded with hIL-2, CD25 injected before CD122 and again after CD122
T8 construct: Humanized IgG1 LALA captured on the SPR chip and saturated with 50 nM hIL-2
Description: as §1

[9] = target: T9, BDG17.043 complexed with hIL-2 (human, UniProt P60568 21-153); test: SPR, captured BDG17.043 loaded with 50 nM hIL-2, CD25 injected before CD122
T9 construct: Humanized IgG1 captured on the SPR chip and saturated with 50 nM hIL-2; also called BDG17.043/hIL-2
Description: as §1

T1 sequence (P60568 21-153 limits assumed): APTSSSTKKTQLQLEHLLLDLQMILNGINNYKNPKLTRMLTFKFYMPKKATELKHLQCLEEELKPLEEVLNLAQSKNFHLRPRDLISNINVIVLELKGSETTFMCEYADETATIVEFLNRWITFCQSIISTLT
T6 sequence (heavy, as listed by the source limits assumed, chain 1 of 3): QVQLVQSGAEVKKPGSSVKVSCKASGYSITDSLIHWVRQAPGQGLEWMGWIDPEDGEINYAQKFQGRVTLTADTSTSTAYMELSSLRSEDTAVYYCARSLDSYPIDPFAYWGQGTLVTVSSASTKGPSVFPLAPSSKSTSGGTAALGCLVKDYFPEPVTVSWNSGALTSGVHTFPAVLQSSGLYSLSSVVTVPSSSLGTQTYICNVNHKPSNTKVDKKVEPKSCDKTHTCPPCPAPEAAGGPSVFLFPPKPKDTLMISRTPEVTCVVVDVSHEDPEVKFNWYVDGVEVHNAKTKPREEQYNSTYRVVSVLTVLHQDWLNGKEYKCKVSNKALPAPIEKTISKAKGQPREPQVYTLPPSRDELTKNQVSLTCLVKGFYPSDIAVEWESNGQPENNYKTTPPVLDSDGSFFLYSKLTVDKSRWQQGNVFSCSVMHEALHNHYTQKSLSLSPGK
T6 sequence (light, as listed by the source limits assumed, chain 2 of 3): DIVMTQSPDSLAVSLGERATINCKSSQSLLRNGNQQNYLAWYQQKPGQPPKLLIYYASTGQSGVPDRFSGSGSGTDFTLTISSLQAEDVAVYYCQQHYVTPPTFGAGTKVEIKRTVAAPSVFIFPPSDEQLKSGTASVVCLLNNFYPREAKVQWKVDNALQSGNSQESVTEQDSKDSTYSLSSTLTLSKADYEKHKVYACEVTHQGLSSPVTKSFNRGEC
T6 sequence (P60568 21-153 limits assumed, chain 3 of 3): as the sequence (P60568 21-153 limits assumed) above
T5 sequence (VH, as listed by the source limits assumed, chain 1 of 3): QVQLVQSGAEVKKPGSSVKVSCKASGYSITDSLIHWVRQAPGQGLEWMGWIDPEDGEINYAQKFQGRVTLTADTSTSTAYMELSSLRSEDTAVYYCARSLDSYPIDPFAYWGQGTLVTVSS
T5 sequence (VL, as listed by the source limits assumed, chain 2 of 3): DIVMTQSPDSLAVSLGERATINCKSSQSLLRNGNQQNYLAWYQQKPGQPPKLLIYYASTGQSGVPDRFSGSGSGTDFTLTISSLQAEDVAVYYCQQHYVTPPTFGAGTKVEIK
T5 sequence (P60568 21-153 limits assumed, chain 3 of 3): as the sequence (P60568 21-153 limits assumed) above
T2 sequence (VH, as listed by the source limits assumed, chain 1 of 3): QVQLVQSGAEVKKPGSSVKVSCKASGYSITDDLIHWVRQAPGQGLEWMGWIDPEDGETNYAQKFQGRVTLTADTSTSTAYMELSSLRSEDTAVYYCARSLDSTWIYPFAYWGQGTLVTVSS
T2 sequence (VL, as listed by the source limits assumed, chain 2 of 3): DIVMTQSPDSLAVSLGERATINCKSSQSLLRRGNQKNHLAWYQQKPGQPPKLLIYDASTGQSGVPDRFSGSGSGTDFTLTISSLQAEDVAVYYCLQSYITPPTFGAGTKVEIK
T2 sequence (P60568 21-153 limits assumed, chain 3 of 3): as the sequence (P60568 21-153 limits assumed) above
T3 sequence (VH, as listed by the source limits assumed, chain 1 of 3): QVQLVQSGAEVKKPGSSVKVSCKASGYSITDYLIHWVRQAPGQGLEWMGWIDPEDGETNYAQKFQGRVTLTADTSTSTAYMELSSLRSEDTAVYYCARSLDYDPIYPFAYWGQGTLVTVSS
T3 sequence (VL, as listed by the source limits assumed, chain 2 of 3): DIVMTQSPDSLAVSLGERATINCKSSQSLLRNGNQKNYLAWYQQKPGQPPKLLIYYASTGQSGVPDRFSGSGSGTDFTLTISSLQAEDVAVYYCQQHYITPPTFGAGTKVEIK
T3 sequence (P60568 21-153 limits assumed, chain 3 of 3): as the sequence (P60568 21-153 limits assumed) above
T8 sequence (heavy, as listed by the source limits assumed, chain 1 of 3): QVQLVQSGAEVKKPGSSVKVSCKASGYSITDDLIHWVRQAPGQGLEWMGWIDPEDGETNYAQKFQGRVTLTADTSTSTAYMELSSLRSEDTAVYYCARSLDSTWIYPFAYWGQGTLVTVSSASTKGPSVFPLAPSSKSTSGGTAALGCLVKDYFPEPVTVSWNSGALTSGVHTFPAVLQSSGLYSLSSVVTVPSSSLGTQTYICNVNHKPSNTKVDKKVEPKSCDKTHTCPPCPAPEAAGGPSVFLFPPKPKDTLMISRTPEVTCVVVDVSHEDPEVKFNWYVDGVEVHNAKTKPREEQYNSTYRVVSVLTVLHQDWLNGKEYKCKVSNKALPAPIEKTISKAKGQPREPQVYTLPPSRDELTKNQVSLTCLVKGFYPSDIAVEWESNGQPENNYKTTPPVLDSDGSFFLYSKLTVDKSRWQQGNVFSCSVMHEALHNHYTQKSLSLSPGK
T8 sequence (light, as listed by the source limits assumed, chain 2 of 3): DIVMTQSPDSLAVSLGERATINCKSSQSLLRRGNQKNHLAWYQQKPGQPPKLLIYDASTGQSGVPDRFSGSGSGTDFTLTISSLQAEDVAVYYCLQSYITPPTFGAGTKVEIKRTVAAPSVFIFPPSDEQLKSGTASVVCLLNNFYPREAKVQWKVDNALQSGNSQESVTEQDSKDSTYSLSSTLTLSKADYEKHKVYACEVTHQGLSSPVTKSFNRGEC
T8 sequence (P60568 21-153 limits assumed, chain 3 of 3): as the sequence (P60568 21-153 limits assumed) above
T4 sequence (P60568 21-153 limits assumed, one chain of several): as the sequence (P60568 21-153 limits assumed) above
T7 sequence (heavy, as listed by the source limits assumed, chain 1 of 3): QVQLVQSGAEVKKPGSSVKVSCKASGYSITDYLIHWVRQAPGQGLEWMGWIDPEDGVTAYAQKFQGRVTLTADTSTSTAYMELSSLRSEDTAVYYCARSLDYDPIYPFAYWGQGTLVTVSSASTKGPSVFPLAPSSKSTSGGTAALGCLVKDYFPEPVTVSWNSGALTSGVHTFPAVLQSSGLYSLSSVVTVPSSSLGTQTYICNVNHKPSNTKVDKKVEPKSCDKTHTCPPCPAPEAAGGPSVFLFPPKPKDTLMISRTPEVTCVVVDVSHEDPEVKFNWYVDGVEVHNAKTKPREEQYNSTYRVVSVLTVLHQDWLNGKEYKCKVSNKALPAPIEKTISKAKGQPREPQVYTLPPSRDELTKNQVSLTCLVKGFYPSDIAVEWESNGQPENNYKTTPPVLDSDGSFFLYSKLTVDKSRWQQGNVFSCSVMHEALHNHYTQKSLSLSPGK
T7 sequence (light, as listed by the source limits assumed, chain 2 of 3): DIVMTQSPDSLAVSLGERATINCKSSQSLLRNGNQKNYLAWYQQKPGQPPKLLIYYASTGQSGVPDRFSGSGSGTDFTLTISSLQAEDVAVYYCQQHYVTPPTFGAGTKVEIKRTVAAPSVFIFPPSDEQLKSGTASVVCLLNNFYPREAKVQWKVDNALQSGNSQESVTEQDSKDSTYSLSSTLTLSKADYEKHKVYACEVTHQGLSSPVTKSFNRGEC
T7 sequence (P60568 21-153 limits assumed, chain 3 of 3): as the sequence (P60568 21-153 limits assumed) above
T9 sequence (VH, as listed by the source limits assumed, chain 1 of 3): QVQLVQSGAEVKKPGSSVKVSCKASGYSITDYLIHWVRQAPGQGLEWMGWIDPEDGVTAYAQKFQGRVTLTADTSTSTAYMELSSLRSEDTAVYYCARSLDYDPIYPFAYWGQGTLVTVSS
T9 sequence (VL, as listed by the source limits assumed, chain 2 of 3): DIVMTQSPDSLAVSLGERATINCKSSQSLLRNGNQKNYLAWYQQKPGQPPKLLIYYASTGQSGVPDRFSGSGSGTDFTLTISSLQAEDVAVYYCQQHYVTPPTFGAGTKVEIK
T9 sequence (P60568 21-153 limits assumed, chain 3 of 3): as the sequence (P60568 21-153 limits assumed) above

B1: clone 2 (17.022) scFv, yeast surface display clone (scFv)
scFv: EIQLQQSGPELRRPGSSVKLSCKASGYNITDYLIHWVRHRPEHGLEWIGWIDPEDGETRYAQKFQSKATLTADTSSNAAYMQLSSLTPEDTATYFCARSLDSTWIYPFAYWGQGTLVTVSSGGGGSGGGGSGGGGSDIVMTQSPFSLAVSEGEMVTINCKSSQSLLRSGNQKNYLAWYQQKPGQSPKLLIYYASTGQSGVPDRFIGSGSGTDFTLTISDVQAEDLADYYCLQHYITPPTFGAGTKLELK
binding result (human IL-2 [1]): binds

B2: clone 1 (17.021) scFv, yeast surface display clone (scFv)
scFv: EIQLQQSGPELRRPGSSVKLSCKASGYNITDNLIHWVRHRPEHGLEWIGWIDPEDGETRYAQKFQSKATLTADTSSNAAYMQLSSLTPEDTATYFCARSLDSTYIYPFAYWGQGTLVTVSSGGGGSGGGGSGGGGSDIVMTQSPFSLAVSEGEMVTINCKSSQSLLRSGNQKNYLAWYQQKPGQSPKLLIYYASTGQSGVPDRFIGSGSGTDFTLTISDVQAEDLADYYCLQHYQSPPTFGAGTKLELK
binding result (human IL-2 [1]): binds

B3: clone 6 (17.035) scFv, yeast surface display clone (scFv)
scFv: EIQLQQSGPELRRPGSSVKLSCKASGYNITDYLIHWVRHRPEHGLEWIGWIDPEDGETRYAQKFQSKATLTADTSSNAAYMQLSSLTPEDTATYFCARSLDSTYNYPFAYWGQGTLVTVSSGGGGSGGGGSGGGGSDIVMTQSPFSLAVSEGEMVTINCKSSQSLLRSGNQKNYLAWYQQKPGQSPKLLIYYASTGQSGVPDRFIGSGSGTDFTLTISDVQAEDLADYYCLQHWISPPTFGAGTKLELK
binding result (human IL-2 [1]): binds

B4: clone 4 (17.023) scFv, yeast surface display clone (scFv)
scFv: EIQLQQSGPELRRPGSSVKLSCKASGYNITDYLIHWVRHRPEHGLEWIGWIDPEDGETRYAQKFQSKATLTADTSSNAAYMQLSSLTPEDTATYFCARQLDSTYIYPFAYWGQGTLVTVSSGGGGSGGGGSGGGGSDIVMTQSPFSLAVSEGEMVTINCKSSQSLLRSGNQKNYLAWYQQKPGQSPKLLIYYASTGQSGVPDRFIGSGSGTDFTLTISDVQAEDLADYYCLQHYITPPTFGAGTKLELK
binding result (human IL-2 [1]): binds

B5: clone 5 (17.030) scFv, yeast surface display clone (scFv)
scFv: EIQLQQSGPELRRPGSSVKLSCKASGYNITDYLIHWVRHRPEHGLEWIGWIDPEDGETRYAQKFQSKATLTADTSSNAAYMQLSSLTPEDTATYFCARSLDSTYDYPFAYWGQGTLVTVSSGGGGSGGGGSGGGGSDIVMTQSPFSLAVSEGEMVTINCKSSQSLLRSGNQKNYLAWYQQKPGQSPKLLIYYASTGQSGVPDRFIGSGSGTDFTLTISDVQAEDLADYYCLQHYISPPTFGAGTKLELK
binding result (human IL-2 [1]): binds

B6: clone C #7 (173R5C1-17.002) (scFv)
scFv: EIQLQQSGPELRRPGSSVKLSCKASGYNITDYLIHWVRHRPEHGLEWIGWIDPEDGETRYAQKFQSKATLTADTSSNAAYMQLSSLTPEDTATYFCARSLDSTPIYPFAYWGQGTLVTVSSGGGGSGGGGSGGGGSDIVMTQSPFSLAVSEGEMVTINCKSSQSLLRSGNQKNYLAWYQQKPGQSPKLLIYYASTGQSGVPDRFIGSGSGTDFTLTISDVQAEDLADYYCLQHYITPPTFGAGTKLELK
notes: Yeast surface display clone from the JES6.1 scFv library
binding result (human IL-2 [2]): binds

B7: human CD25 (receptor, UniProt P01589 22-240, looked up)
chain: ELCDDDPPEIPHATFKAMAYKEGTMLNCECKRGFRRIKSGSLYMLCTGNSSHSSWDNQCQCTSSATRNTTKQVTPQPEEQKERKTTEMQSPMQPVDQASLPGHCREPPPWENEATERIYHFVVGQMVYYQCVQGYRALHRGPAESVCKMTHGKTRWTQPQLICTGEMETSQFPGEEKPQASPEGRPESETSCLVTTTDFQIQTEMAATMETSIFTTEYQ
notes: also called IL-2R alpha
binding result [3]: no binding (tested: 1000 nM) | binding result [4]: no binding (tested: 1000 nM CD25) | binding result (BDG17.023-hIL-2 complex): no binding (tested: 1000 nM) | binding result [5]: no binding (tested: 1000 nM) | binding result [6]: no binding | binding result [7]: no binding | binding result [8]: no binding | binding result [9]: no binding
